Laboratory results taken from patent publication US20250163122A1, “COMPOSITIONS AND METHODS FOR TREATING AIRWAY MUCUS DYSFUNCTION” (BOARD OF REGENTS, THE UNIVERSITY OF TEXAS SYSTEM, priority 2022, published 2025).
Where a SMILES comes first, the peptide text is derived from it. Bridges are numbered along the chain shown (N, C = ends). [ ]: non-standard residue; d: D form. S5 = C=CCCC[C@](C)(N)C(=O)O

Experiments:
[1] = target: T1, neuronal SNAREs and Syt1_QM (Rattus norvegicus, UniProt P21707, E295A/R281A/R398A/R399A/Y338W); assay: Single vesicle content mixing assay, neuronal SNAREs and Syt1_QM; format: biochemical; details: 10 μM peptide, raw count; for Ca2+ triggered fusion events: 500 μM Ca2+
T1 construct: made in house
T1 sequence (P21707 whole entry R281A/E295A/Y338W/R398A/R399A, the tested form may be a part): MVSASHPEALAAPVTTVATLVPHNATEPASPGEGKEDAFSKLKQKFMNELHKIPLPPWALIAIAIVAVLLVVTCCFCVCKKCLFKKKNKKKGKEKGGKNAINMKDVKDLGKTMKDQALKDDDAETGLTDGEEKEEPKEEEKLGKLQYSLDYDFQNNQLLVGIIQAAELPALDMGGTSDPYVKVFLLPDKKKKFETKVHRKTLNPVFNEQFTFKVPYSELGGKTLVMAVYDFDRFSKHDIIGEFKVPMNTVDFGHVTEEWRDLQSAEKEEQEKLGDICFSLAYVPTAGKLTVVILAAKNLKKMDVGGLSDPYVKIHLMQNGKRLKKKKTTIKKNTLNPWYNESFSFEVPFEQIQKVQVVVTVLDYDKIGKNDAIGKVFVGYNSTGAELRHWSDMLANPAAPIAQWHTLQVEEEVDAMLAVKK
Description: (§1) For single vesicle content mixing assay, the lipid composition of the SV, SG, VAMP2, or VAMP8 vesicles was phosphatidylcholine (PC) (48%), phosphatidylethanolamine (PE) (20%), phosphatidylserine (PS) (12%), and cholesterol (20%); for both the neuronal and airway PM vesicles the lipid composition was Brain Total Lipid Extract supplemented 3.5 mol % PIP2, and 0.1 mol % biotinylated phosphatidylethanolamine (PE).
(§2) The reconstitution method for neuronal PM and SV vesicles was described in detail previously (see Lai et al., 2017; Kyoung et al., 2011; and Lai et al., 2014). The same methods were used for airway PM, SG, VAMP2, and VAMP8 vesicles. Dried lipid films were dissolved in 110 mM OG buffer containing purified proteins at protein-to-lipid ratios of 1:200 for VAMP2 and Stx1A for SV and neuronal PM vesicles, respectively (or 1:200 for VAMP8 and Stx3 for SG and airway PM vesicles, respectively), and 1:800 for Syt1 for SV vesicles (or 1:1200 for Syt2 for SG vesicles).
(§3) A 3-5 fold excess of SNAP-25A or SNAP-23 (with respect to Stx1A or Stx3) and 3.5 mol % PIP2 were added to the protein-lipid mixture for neuronal or airway PM vesicles. […] For the preparation of SV, SG, VAMP2, or VAMP8 vesicles for single vesicle content mixing assay, 50 mM sulforhodamine B (Thermo Fisher Scientific) was added to the protein-lipid mixture. The vesicles subsequently formed during size exclusion chromatography using a Sepharose CL-4B column, packed under near constant pressure by gravity with a peristaltic pump (GE Healthcare) in a 5.5 ml column with a ˜5 ml bed volume that was equilibrated with buffer V (20 mM HEPES, pH 7.4, 90 mM NaCl) supplemented with 20 μM EGTA and 0.1% 2-mercaptoethanol. The eluent was subjected to dialysis into 21 of detergent-free buffer V supplemented with 20 μM EGTA, 0.1% 2-mercaptoethanol, 5 g of Bio-beads SM2 (Bio-Rad) and 0.8 g/L Chelex 100 resin (Bio-Rad). After 4 hours, the buffer was exchanged with 21 of fresh buffer V supplemented with 20 μM EGTA, 0.1% 2-mercaptoethanol and Bio-beads, and the dialysis continued for another 12 h (overnight). […] For ensemble lipid mixing assay, the reconstitution method is the same as that for the single vesicle content mixing assay, except that 50 mM sulforhodamine B was omitted for all the steps.
(§4) Single vesicle content mixing experiments. All single vesicle fusion and single molecule experiments were performed on a prism-type total internal reflection fluorescence (TIRF) microscope using 532 nm (green) laser (CrystaLaser) excitation. Two observation channels were created by a 640 nm single-edge dichroic beamsplitter (FF640-FDi01-25x36, Shemrock): one channel was used for the fluorescence emission intensity of the content dyes and the other channel for that of the Cy5 dye that are part of the injected Ca^2+-solution. The two channels were recorded on two adjacent rectangular areas (45×90 m^2) of a charge-coupled device (CCD) camera (iXon+DV 897E, Andor Technology). The imaging data were recorded with the smCamera software developed by Taekjip Ha, Johns Hopkins University, Baltimore.
(§5) Flow chambers were assembled by creating a “sandwich” consisting of a quartz slide and a glass coverslip that were both coated with polyethylene glycol (PEG) molecules consisting 0.1% (w/v) biotinylated-PEG except when stated otherwise, and using double-sided tape to create up to five flow-chambers.
(§6) The single vesicle content mixing assay described in Lai et al. (2014) was used to monitor vesicle-vesicle association, Ca^2+-independent, and Ca^2+-triggered fusion. The surface of the quartz slides was passivated by coating the surface with polyethylene glycol (PEG) molecules which alleviated non-specific binding of vesicles. The same protocol and quality controls (surface coverage and non-specific binding) were used as described previously (Kyoung et al., 2011; Kyoung et al., 2012) except that PEG-SVA (Laysan Bio) instead of mPEG-SCM (Laysan Bio) was used since it has a longer half-life. […]

airway SNAREs and Syt2 = airway SNAREs and Syt2 (Rattus norvegicus, UniProt P29101); assay: Single vesicle content mixing assay, airway SNAREs and Syt2 (airway PM and SG vesicles); format: biochemical; details: for Ca2+ triggered fusion events / Ca2+ independent fusion events: 10 μM peptide, raw count; for Ca2+ triggered fusion events: 500 μM Ca2+
Chain of airway SNAREs and Syt2 (P29101 whole entry, the tested form may be a part): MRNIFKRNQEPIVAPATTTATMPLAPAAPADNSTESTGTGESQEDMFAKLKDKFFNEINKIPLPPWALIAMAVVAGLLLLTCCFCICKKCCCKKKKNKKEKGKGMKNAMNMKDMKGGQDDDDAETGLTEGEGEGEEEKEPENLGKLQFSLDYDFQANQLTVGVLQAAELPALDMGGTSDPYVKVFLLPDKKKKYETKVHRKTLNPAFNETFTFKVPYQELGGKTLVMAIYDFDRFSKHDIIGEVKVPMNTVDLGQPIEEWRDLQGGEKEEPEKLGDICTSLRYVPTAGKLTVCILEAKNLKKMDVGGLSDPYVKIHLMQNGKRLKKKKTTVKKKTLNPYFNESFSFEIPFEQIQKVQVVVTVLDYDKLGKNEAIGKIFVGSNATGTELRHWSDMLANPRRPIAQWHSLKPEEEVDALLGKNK
Description: as §1, §2, §3, §4, §5, §6

[2] = target: airway epithelial SNAREs, Syt2, Munc13-2*, Munc18-2, NSF, and αSNAP (Rattus norvegicus, UniProt P29101); assay: Single vesicle content mixing assay, airway system with complete reconstitution; format: biochemical; details: for Ca2+ independent fusion events / Ca2+ triggered fusion events: Munc13-2* + 10 μM SP9, raw count
Chain of airway epithelial SNAREs, Syt2, Munc13-2*, Munc18-2, NSF, and αSNAP (P29101 whole entry, the tested form may be a part): as above
Protocol: FIGS. 3A-3G show the effect of stapled peptides on fusion with complete airway system reconstitution according to certain aspects of this disclosure. […] PM: vesicles with reconstituted Stx3 and SNAP-23 that mimic the plasma membrane of epithelial cells; SM: vesicles with reconstituted Stx3/Munc18-2 complex; SG: mucin-containing secretory granules. 0.5 μM Munc13-2* fragment was added after formation of the SM vesicles and during all subsequent stages. 10 μM stapled peptide was added together with SG vesicles and was present during all subsequent stages. […] The fusion probabilities and amplitudes were normalized to the number of analyzed SG—airway PM vesicle pairs (see TABLE 4). FIGS. 3C, 3E, 3F, and 3G show means±SEM for multiple independent repeat experiments (see TABLE 2).
as §1, §2, §3
as §4, with “Baltimore. […]” for “Baltimore.”

Syt1 C2B = Syt1 C2B (Rattus norvegicus, UniProt P21707); assay: Bulk fluorescence anisotropy binding, Syt1 C2B; details: Cy3 labeled peptide
Chain of Syt1 C2B (P21707 271-421): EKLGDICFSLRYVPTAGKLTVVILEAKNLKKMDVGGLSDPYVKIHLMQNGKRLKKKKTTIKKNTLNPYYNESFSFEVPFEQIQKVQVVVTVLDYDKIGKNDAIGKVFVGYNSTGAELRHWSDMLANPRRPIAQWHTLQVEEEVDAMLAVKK
Protocol: (§7) Bulk fluorescence anisotropy measurements. In the bulk fluorescence anisotropy experiments, the P0 and SP9 peptides were labeled with the fluorescent dye Cy3 at the C-terminus. Anisotropy was measured with a Tecan Infinite […] fluorimeter using an excitation wavelength of 530±5 nm and emission wavelength of 580±5 nm at 27.2° C. The fluorescent dye labeled samples were diluted to 10 nM concentration in TBS (20 mM Tris, pH 7.5, 150 mM NaCl, 0.5 mM TCEP) for optimal read out.

Syt2 C2B = Syt2 C2B (Rattus norvegicus, UniProt P29101); assay: Bulk fluorescence anisotropy binding, Syt2 C2B; details: Cy3 labeled peptide
Chain of Syt2 C2B (P29101 272-422): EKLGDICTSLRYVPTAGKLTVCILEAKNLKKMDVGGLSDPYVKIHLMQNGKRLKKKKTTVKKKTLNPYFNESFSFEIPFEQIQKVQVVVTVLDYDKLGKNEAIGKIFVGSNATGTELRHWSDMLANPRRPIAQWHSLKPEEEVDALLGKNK
Protocol: as §7

Compound	Ca2+ triggered fusion events [1]	Ca2+ independent fusion events [1]	Ca2+ triggered fusion events (airway SNAREs and Syt2)	Ca2+ independent fusion events (airway SNAREs and Syt2)	effect on Ca2+-independent fusion probability ([2]; 10 μM peptide)	effect on vesicle association ([2]; 10 μM peptide)	effect on Ca2+-triggered fusion amplitude, cumulative fusion probability and synchronization ([2]; 10 μM peptide, both 50 μM and 500 μM Ca2+)	Ca2+ independent fusion events ([2]; 50 μM Ca2+ experiment)	Ca2+ triggered fusion events ([2]; 50 μM Ca2+)	Ca2+ independent fusion events ([2]; 500 μM Ca2+ experiment)	Ca2+ triggered fusion events ([2]; 500 μM Ca2+)	binding to C2B domain of Syt1 (Syt1 C2B)	binding to C2B domain of Syt2 (Syt2 C2B)	effect on Ca2+-triggered cumulative fusion probability (airway SNAREs and Syt2; up to 10 μM peptide)	effect on intrinsic Ca2+-independent fusion probability (airway SNAREs and Syt2; up to 10 μM peptide)
Ac-SKDA(S5)IRT(S5)VM(S5)DEQ(S5)EQL-amide (Ac-SKDA[S5]IRT[S5]VM[S5]DEQ[S5]EQL-NH2; staple 12-16, 5-9; SMILES CC[C@H](C)[C@@H]1NC(=O)[C@@](C)(NC(=O)[C@H](C)NC(=O)[C@H](CC(=O)O)NC(=O)[C@H](CCCCN)NC(=O)[C@H](CO)NC(C)=O)CCCC=CCCC[C@@](C)(C(=O)N[C@H](C(=O)N[C@@H](CCSC)C(=O)N[C@@]2(C)CCCC=CCCC[C@@](C)(C(=O)N[C@@H](CCC(=O)O)C(=O)N[C@@H](CCC(N)=O)C(=O)N[C@@H](CC(C)C)C(N)=O)NC(=O)[C@H](CCC(N)=O)NC(=O)[C@H](CCC(=O)O)NC(=O)[C@H](CC(=O)O)NC2=O)C(C)C)NC(=O)[C@H]([C@@H](C)O)NC(=O)[C@H](CCCNC(=N)N)NC1=O) [SP4]	248	222	231	237											
Ac-SKD(S5)GIR(S5)LV(S5)LDE(S5)GEQL-amide (Ac-SKD[S5]GIR[S5]LV[S5]LDE[S5]GEQL-NH2; staple 11-15, 4-8; SMILES CC[C@H](C)[C@@H]1NC(=O)CNC(=O)[C@@](C)(NC(=O)[C@H](CC(=O)O)NC(=O)[C@H](CCCCN)NC(=O)[C@H](CO)NC(C)=O)CCCC=CCCC[C@@](C)(C(=O)N[C@@H](CC(C)C)C(=O)N[C@H](C(=O)N[C@@]2(C)CCCC=CCCC[C@@](C)(C(=O)NCC(=O)N[C@@H](CCC(=O)O)C(=O)N[C@@H](CCC(N)=O)C(=O)N[C@@H](CC(C)C)C(N)=O)NC(=O)[C@H](CCC(=O)O)NC(=O)[C@H](CC(=O)O)NC(=O)[C@H](CC(C)C)NC2=O)C(C)C)NC(=O)[C@H](CCCNC(=N)N)NC1=O) [SP10]	367	252	273	327											
CC[C@H](C)[C@H](NC(=O)[C@]1(C)CCCC=CCCC[C@](C)(NC(=O)[C@H](CCC(=O)O)NC(=O)[C@H](CCC(=O)O)NC(C)=O)C(=O)N[C@@H](CCCCN)C(=O)N[C@@H](CC(=O)O)C(=O)N[C@@H](C)C(=O)N1)C(=O)N[C@@H](CCCNC(=N)N)C(=O)N[C@@]1(C)CCCC=CCCC[C@@](C)(C(=O)N[C@@H](CC(=O)O)C(=O)N[C@@H](CCC(=O)O)C(=O)N[C@@H](CCC(N)=O)C(=O)N[C@@H](CS)C(N)=O)NC(=O)[C@H](CCSC)NC(=O)[C@H](C(C)C)NC(=O)[C@H](CC(C)C)NC1=O [SP9, Ac-EE(S5)KDA(S5)IR(S5)LVM(S5)DEQC-amide] (Ac-EE[S5]KDA[S5]IR[S5]LVM[S5]DEQC-NH2; staple 3-7, 10-14)	260	242	250	274	only moderately reduced	no effect	strongly inhibited	23	89	41	106				
Ac-SKD(S5)GIR(S5)LVMLDE(S5)GEQ(S5)DR-amide (Ac-SKD[S5]GIR[S5]LVMLDE[S5]GEQ[S5]DR-NH2; staple 15-19, 4-8; SMILES CC[C@H](C)[C@@H]1NC(=O)CNC(=O)[C@@](C)(NC(=O)[C@H](CC(=O)O)NC(=O)[C@H](CCCCN)NC(=O)[C@H](CO)NC(C)=O)CCCC=CCCC[C@@](C)(C(=O)N[C@@H](CC(C)C)C(=O)N[C@H](C(=O)N[C@@H](CCSC)C(=O)N[C@@H](CC(C)C)C(=O)N[C@@H](CC(=O)O)C(=O)N[C@@H](CCC(=O)O)C(=O)N[C@@]2(C)CCCC=CCCC[C@@](C)(C(=O)N[C@@H](CC(=O)O)C(=O)N[C@@H](CCCNC(=N)N)C(N)=O)NC(=O)[C@H](CCC(N)=O)NC(=O)[C@H](CCC(=O)O)NC(=O)CNC2=O)C(C)C)NC(=O)[C@H](CCCNC(=N)N)NC1=O) [SP1]	282	226	275	251											
EESKDAGIRTLVMLDEQGEQLD [Peptide P0, non-stapled SNAP-25A fragment used as a control, reference compound]			219	113								no binding	no binding	no effect	no effect
